Numbering of substitutions follows the chain as printed.
B1: 368 (protein)
chain: LDNGLARTPTMGWLHWERFMCNLDCQEEPDSCISEKLFMEMAEAMVSEGWKDAGYEYLCIDDCWMAPQRDSEGRLQADPQRFPHGIRQLANYVHSKGLKLGIYADVGNKTCAGFPGSFGYYDIDAQTFADWGVDLLKFDGCYCDSLENLADGYKHMSLALNRTGRSIVYSCEWPLYMWPFQKPNYTEIRQYCNHWRNFADIDDSWKSIKSILDWTSRNQERIVDVAGPGGWNDPDMLVIGNFGLSWDQQVTQMALWAIMAAPLFMSNDLRHISPQAKALLQDKDVIAINQDPLGKQGYQLRKGDNFEVWERPLSGDAWAVAIINRQEIGGPRSYTIPVASLGKGVACNPACFITQLLPVKRQLGFYNWTSRLKSHINPTGTVLLQLENTMQMSLKDLL
modifications: Synthetic Polypeptide sequence of Variant No. 368 of mature Human GLA
B2: 369 (protein)
chain: B1 chain with A44S
modifications: Synthetic Polypeptide sequence of Variant No. 369 of mature Human GLA
B3: 468 (protein)
chain: B1 chain with A44R, T389Q
modifications: Synthetic Polypeptide sequence of Variant No. 468 of mature Human GLA
B4: 470 (protein)
chain: B1 chain with A44R, M392R
modifications: Synthetic Polypeptide sequence of Variant No. 470 of mature Human GLA
B5: 469 (protein)
chain: B1 chain with A44R, Q385I
modifications: Synthetic Polypeptide sequence of Variant No. 469 of mature Human GLA
B6: 474 (protein)
chain: B1 chain with A44R, L386F
modifications: Synthetic Polypeptide sequence of Variant No. 474 of mature Human GLA
B7: 471 (protein)
chain: B1 chain with A44R, T389W
modifications: Synthetic Polypeptide sequence of Variant No. 471 of mature Human GLA
B8: 472 (protein)
chain: B1 chain with A44R, M392K
modifications: Synthetic Polypeptide sequence of Variant No. 472 of mature Human GLA
B9: 473 (protein)
chain: B1 chain with A44R, M392L
modifications: Synthetic Polypeptide sequence of Variant No. 473 of mature Human GLA
B10: 475 (protein)
chain: LDNGLARTPTMGWLHWERFMCNLDCQEEPDSCISEKLFMEMAERMVSEGWKDAGYEYLCIDDCWMAPQRDSEGRLQADPQRFPHGIRQLANYVHSKGLKLGIYADVGNKTCAGFPGSFGYYDIDAQTFADWGVDLLKFDGCYCDSLENLADGYKHMSLALNRTGRSIVYSCEWPLYMWPFQKPNYTEIRQYCNHWRNFADIDDSWKSIKSILDWTSFNQERIVDVAGPGGWNDPDMLVIGNFGLSWNQQVTQMALWAIMAAPLFMSNDLRHISPQAKALLQDKDVIAINQDPLGKQGYQLRQGDNFEVWERPLSGLAWAVAMINRQEIGGPRSYTIAVASLGKGVACNPACFITQLLPVKRKLGFYEWTSRLRSHINPTGTVLLQLENDMQMSLKDLL
modifications: Synthetic Polypeptide sequence of Variant No. 475 of mature Human GLA
B11: 476 (protein)
chain: B10 chain with D389T, M390E
modifications: Synthetic Polypeptide sequence of Variant No. 476 of mature Human GLA
B12: 477 (protein)
chain: B10 chain with L384W, D389T
modifications: Synthetic Polypeptide sequence of Variant No. 477 of mature Human GLA

Key:
Assay type in all cases: biochemical
[1] = HTP-analysis of supernatants pretreated with acid (MUGal hydrolysis); details: activity of the variant/activity of Rd4BB (SEQ ID NO: 15); challenge at pH 3.7
How it was run: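 Yeast INVSc1 supernatant, GLA variants; acid challenge: McIlvaine pH 3.3-4.3, 37° C., 1-3 h. Assay: MUGal in McIlvaine pH 4.8 plus citrate pH 4.3, 37° C., 30-180 min, Na2CO3 stop, Ex 355/Em 448 nm.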

[2] = HTP-analysis of supernatants pretreated with base (MUGal hydrolysis); details: activity of the variant/activity of Rd4BB (SEQ ID NO: 15); challenge at pH 9.65
How it was run: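 GLA variants secreted from yeast INVSc1; culture supernatants pre-incubated with McIlvaine buffer pH 7.0–8.2 or 200 mM bicarbonate pH 9.1–9.7 at 37° C. for 1–18 h. Residual activity: MUGal (4 mM stock) hydrolysis at pH 4.3–4.8, 37° C., 30–180 min, carbonate quench; fluorescence Ex 355/Em 448 nm.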

[3] = HTP-analysis of yeast culture supernatants, no challenge (MUGal hydrolysis); details: activity of the variant/activity of Rd4BB (SEQ ID NO: 15)
How it was run: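 Activity read as 4-methylumbelliferyl α-D-galactopyranoside hydrolysis: fluorescence (355/448 nm) after sodium carbonate stop, following 30-180 min at 37° C with 2 mM MUGal stock at pH 4.6–4.8. Enzyme source is unchallenged culture supernatant of INVSc1 yeast expressing GLA variants, grown 66-84 h at 30° C.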

Row | Molecule | Relative Activity of GLA Variants After Challenge at pH 3.7 [1] | Relative Activity of GLA Variants After Challenge at pH 9.65 [2] | Relative Activity of GLA Variants After No Challenge (NC) [3]
1 | B1 | + (0.5 to 1.5 relative activity over Rd4BB (SEQ ID NO: 15)) | + (0.5 to 1.5 relative activity over Rd4BB (SEQ ID NO: 15)) | + (0.5 to 1.5 relative activity over Rd4BB (SEQ ID NO: 15))
2 | B2 | + (0.5 to 1.5 relative activity over Rd4BB (SEQ ID NO: 15)) | − (<0.5 relative activity over Rd4BB (SEQ ID NO: 15)) | + (0.5 to 1.5 relative activity over Rd4BB (SEQ ID NO: 15))
3 | B3 | + (0.5 to 1.5 relative activity over Rd4BB (SEQ ID NO: 15)) | + (0.5 to 1.5 relative activity over Rd4BB (SEQ ID NO: 15)) | + (0.5 to 1.5 relative activity over Rd4BB (SEQ ID NO: 15))
4 | B4 | ++ (>1.5 to 2.5 relative activity over Rd4BB (SEQ ID NO: 15)) | + (0.5 to 1.5 relative activity over Rd4BB (SEQ ID NO: 15)) | + (0.5 to 1.5 relative activity over Rd4BB (SEQ ID NO: 15))
5 | B5 | + (0.5 to 1.5 relative activity over Rd4BB (SEQ ID NO: 15)) | + (0.5 to 1.5 relative activity over Rd4BB (SEQ ID NO: 15)) | + (0.5 to 1.5 relative activity over Rd4BB (SEQ ID NO: 15))
6 | B6 | ++ (>1.5 to 2.5 relative activity over Rd4BB (SEQ ID NO: 15)) | + (0.5 to 1.5 relative activity over Rd4BB (SEQ ID NO: 15)) | + (0.5 to 1.5 relative activity over Rd4BB (SEQ ID NO: 15))
7 | B7 | + (0.5 to 1.5 relative activity over Rd4BB (SEQ ID NO: 15)) | + (0.5 to 1.5 relative activity over Rd4BB (SEQ ID NO: 15)) | + (0.5 to 1.5 relative activity over Rd4BB (SEQ ID NO: 15))
8 | B8 | + (0.5 to 1.5 relative activity over Rd4BB (SEQ ID NO: 15)) | + (0.5 to 1.5 relative activity over Rd4BB (SEQ ID NO: 15)) | + (0.5 to 1.5 relative activity over Rd4BB (SEQ ID NO: 15))
9 | B9 | + (0.5 to 1.5 relative activity over Rd4BB (SEQ ID NO: 15)) | + (0.5 to 1.5 relative activity over Rd4BB (SEQ ID NO: 15)) | + (0.5 to 1.5 relative activity over Rd4BB (SEQ ID NO: 15))
10 | B10 | + (0.5 to 1.5 relative activity over Rd4BB (SEQ ID NO: 15)) | + (0.5 to 1.5 relative activity over Rd4BB (SEQ ID NO: 15)) | + (0.5 to 1.5 relative activity over Rd4BB (SEQ ID NO: 15))
11 | B11 | + (0.5 to 1.5 relative activity over Rd4BB (SEQ ID NO: 15)) | + (0.5 to 1.5 relative activity over Rd4BB (SEQ ID NO: 15)) | + (0.5 to 1.5 relative activity over Rd4BB (SEQ ID NO: 15))
12 | B12 | − (<0.5 relative activity over Rd4BB (SEQ ID NO: 15)) | + (0.5 to 1.5 relative activity over Rd4BB (SEQ ID NO: 15)) | + (0.5 to 1.5 relative activity over Rd4BB (SEQ ID NO: 15))

From US11278600B2, “Human alpha-galactosidase variants” (Codexis, Inc., priority 2014, dated 2022)
